From patent publication US20250092135A1 (NANJING LEADS BIOLABS, published 2025)

Experiments:
Experiment in all cases: BLI (ForteBio Octet RED96), antibody on AHC sensor, analyte 100-3.13 nM, 1:1 model
[1] = target: T1, Cynomolgus monkey MUC16-His (cynomolgus monkey)
T1 construct: The entry includes the C-terminal 6xHis tag; also called Cynomolgus monkey MUC16 protein
T1 chain: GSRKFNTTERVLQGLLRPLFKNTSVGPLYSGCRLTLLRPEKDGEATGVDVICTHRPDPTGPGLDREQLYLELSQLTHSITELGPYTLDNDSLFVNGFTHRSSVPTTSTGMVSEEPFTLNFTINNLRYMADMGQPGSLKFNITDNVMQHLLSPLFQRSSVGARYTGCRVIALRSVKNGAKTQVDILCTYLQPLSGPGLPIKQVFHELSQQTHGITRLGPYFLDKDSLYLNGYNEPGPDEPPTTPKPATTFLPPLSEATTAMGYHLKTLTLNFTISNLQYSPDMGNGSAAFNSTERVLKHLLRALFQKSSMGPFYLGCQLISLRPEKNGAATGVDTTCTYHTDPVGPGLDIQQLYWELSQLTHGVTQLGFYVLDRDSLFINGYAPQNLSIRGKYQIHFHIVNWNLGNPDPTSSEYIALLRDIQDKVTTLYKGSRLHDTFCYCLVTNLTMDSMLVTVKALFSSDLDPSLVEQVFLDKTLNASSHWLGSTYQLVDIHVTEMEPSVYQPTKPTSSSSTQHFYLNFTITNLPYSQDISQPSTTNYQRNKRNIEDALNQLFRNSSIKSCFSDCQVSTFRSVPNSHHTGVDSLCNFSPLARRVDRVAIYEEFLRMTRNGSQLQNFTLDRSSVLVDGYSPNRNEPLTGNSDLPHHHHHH
Source text: (§1) In this experiment, the binding affinity of the bispecific antibody for the human CD3 protein (Cat #CT038-H2508H, Sinobiological), cynomolgus monkey CD3 protein (Cat #CDD-C52W4, Acrobiosystems), human MUC16 protein (full-length human MUC16, the membrane-proximal end of the extracellular region of MUC16 (Table 26)), and cynomolgus monkey MUC16 protein (full-length cynomolgus monkey MUC16, the membrane-proximal end of the extracellular region of MUC16 (Table 26)) was detected using ForteBio Octet RED96 according to the manufacturer's instructions.
(§2) Briefly, an AHC sensor (ForteBio, Cat #18-5060) was placed in a running buffer (1×PBS, Hyclone, Cat #SH30256.01, containing 0.02% Tween 20, pH 7.0) and pre-equilibrated at room temperature for 10 min. […] The experimental data were fitted and calculated using a Fortebio Data Analysis software 1:1 binding model.

[2] = target: T2, Human CD3D & CD3E heterodimer protein (human, UniProt P07766 23-126; P04234 22-105)
T2 construct: Bought recombinant heterodimer; also called human CD3 protein (Sino Biological, Cat #CT038-H2508H)
Source text: as §1, §2

Human MUC16-His = target: T3, Human MUC16-His (human)
T3 construct: The entry includes the C-terminal 6xHis tag; also called membrane-proximal end of the extracellular region of the human MUC16 protein; Human MUC16 protein
T3 chain: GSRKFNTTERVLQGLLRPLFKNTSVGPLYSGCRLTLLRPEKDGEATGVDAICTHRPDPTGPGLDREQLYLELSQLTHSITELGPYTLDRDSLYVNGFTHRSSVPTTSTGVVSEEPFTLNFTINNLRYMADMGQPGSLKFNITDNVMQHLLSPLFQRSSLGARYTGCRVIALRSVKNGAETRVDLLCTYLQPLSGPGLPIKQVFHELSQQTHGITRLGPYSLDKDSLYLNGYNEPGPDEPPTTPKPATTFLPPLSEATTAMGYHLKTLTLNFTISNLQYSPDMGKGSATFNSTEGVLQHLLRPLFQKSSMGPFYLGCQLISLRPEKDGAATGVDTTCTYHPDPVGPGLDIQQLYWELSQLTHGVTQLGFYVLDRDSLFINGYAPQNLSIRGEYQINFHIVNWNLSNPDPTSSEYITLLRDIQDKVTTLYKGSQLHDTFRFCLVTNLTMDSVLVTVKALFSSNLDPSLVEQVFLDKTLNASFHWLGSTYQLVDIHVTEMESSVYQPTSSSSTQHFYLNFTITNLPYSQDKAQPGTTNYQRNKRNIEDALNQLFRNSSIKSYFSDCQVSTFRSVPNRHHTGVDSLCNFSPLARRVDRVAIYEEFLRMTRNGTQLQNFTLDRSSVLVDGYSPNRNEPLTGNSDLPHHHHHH
Source text: as §1, §2

[3] = target: T4, Cynomolgus monkey CD3D & CD3E heterodimer protein (cynomolgus monkey, UniProt Q95LI5 22-117; Q95LI8 22-105)
T4 construct: same catalogue number; also called monkey CD3 protein (Acro biosystems, Cat #CDD-C52W4)
Source text: as §1, §2

T2 sequence (P07766 23-126 limits assumed, chain 1 of 2): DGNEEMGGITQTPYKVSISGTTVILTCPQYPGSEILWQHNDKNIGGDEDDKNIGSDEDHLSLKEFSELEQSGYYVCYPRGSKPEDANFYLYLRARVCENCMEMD
T2 sequence (P04234 22-105 limits assumed, chain 2 of 2): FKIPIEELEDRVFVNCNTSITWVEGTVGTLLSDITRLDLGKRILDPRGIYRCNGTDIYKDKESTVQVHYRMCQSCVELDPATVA
T4 sequence (Q95LI5 22-117 limits assumed, chain 1 of 2): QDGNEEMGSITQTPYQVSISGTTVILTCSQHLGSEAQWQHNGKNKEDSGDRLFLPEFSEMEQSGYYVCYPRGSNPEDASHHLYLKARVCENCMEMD
T4 sequence (Q95LI8 22-105 limits assumed, chain 2 of 2): as the sequence (P04234 22-105 limits assumed, chain 2 of 2) above, with I5V, N15K, I20V, S32T, D33N, I34N, T64A, S74N, V83L counted along it

B1: anti-CD3/MUC16 bispecific antibody MCH7-23L2-MCH7 (bispecific antibody, human IgG1, kappa, L234A L235A)
heavy 1: QVQLVQSGAEVKKPGASVKVSCKASGYTFTDYNIHWVRQAPGQGLEWMGYIYPYNGVSDYNQNFKSRVTMTTDTSTSTAYMELRSLRSDDTAVYYCARWDFGSGYYFDYWGQGTLVTVSSASTKGPSVFPLAPSSKSTSGGTAALGCLVKDYFPEPVTVSWNSGALTSGVHTFPAVLQSSGLYSLSSVVTVPSSSLGTQTYICNVNHKPSNTKVDKKVEPKSCEVQLVESGGGLVQPGGSLKLSCAASGFTFSTYAMNWVRQAPGKGLEWVGRIRSKYNNYATYYADSVKDRFTISRDDSKNTLYLQMNSLKTEDTAVYYCTRHGNFGNSYVSWFAYWGQGTTVTVSSGGGGSGGGGSGGGGSQAVVTQEPSLTVSPGGTVTLTCRSSTGAVTTSNYANWVQQKPGQAPRGLIGGTNKRAPGVPARFSGSLLGGKAALTLSGAQPEDEAEYFCALWYSNLWVFGGGTKLTVLGEPKSSDKTHTCPPCPAPEAAGGPSVFLFPPKPKDTLMISRTPEVTCVVVAVSHEDPEVKFNWYVDGVEVHNAKTKPREEQYNSTYRVVSVLTVLHQDWLNGKEYKCKVSNKALAAPIEKTISKAKGQPREPQVCTLPPSRDELTKNQVSLSCAVKGFYPSDIAVEWESNGQPENNYKTTPPVLDSDGSFFLVSKLTVDKSRWQQGNVFSCSVMHEALHNHYTQKSLSLSPGK
heavy 2: not shown
light: EIVLTQSPATLSLSPGERATLSCRASSSVIYMSWYQQKPGQAPRLLIYGTSTLASGIPARFSGSGSGTDFTLTISSLEPEDFAVYYCQQWSSNPFTFGQGTKLEIKRTVAAPSVFIFPPSDEQLKSGTASVVCLLNNFYPREAKVQWKVDNALQSGNSQESVTEQDSKDSTYSLSSTLTLSKADYEKHKVYACEVTHQGLSSPVTKSFNRGEC
notes: MCH7-23L2ScFv-Hole (VH-CH1-scFv-Fc) + MCH7-KIH-Knob + two light chains MCL4 LC
Q: Which results are given for B1?
A: Kd [1]: 2.91 nM; koff [1]: 0.000546 s⁻¹; kon [1]: 188000 M⁻¹ s⁻¹; Kd [2]: 44.3 nM; koff [2]: 0.00933 s⁻¹; kon [2]: 211000 M⁻¹ s⁻¹; Kd (Human MUC16-His): 3.17 nM; koff (Human MUC16-His): 0.000524 s⁻¹; kon (Human MUC16-His): 166000 M⁻¹ s⁻¹; Kd [3]: 30.4 nM; koff [3]: 0.00378 s⁻¹; kon [3]: 124000 M⁻¹ s⁻¹
